B1: library; numbered along this chain (parent)
chain: MAAAAAAAAEQQSSNGPVKKSMREKAVERRSVNKEHNSNFKAGYIPIDEDRLHKTGLRGRKGNLAICVIILLFILAVINLIITLVIWAVIRIGPNGCDSMEFHESGLLRFKQVSDMGVIHPLYKSTVGGRRNENLVITGNNQPIVFQQGTTKLSVENNKTSITSDIGMQFFDPRTQNILFSTDYETHEFHLPSGVKSLNVQKASTERITSNATSDLNIKVDGRAIVRGNEGVFIMGKTIEFHMGGNMELKAENSIILNGSVMVSTTRLPSSSSGDQLGSGDWVRYKLCMCADGTLFKVQVTSQNMGCQISDNPCGNTH

Variants of: B1
Test: SGCB cell-surface expression functional score (HA stain, bin4 vs bin1, normalised to synonymous) (log10 ratio); higher = more cell-surface SGCB (functional)
Experimental: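 Deep mutational scan of full-length human SGCB (YFP-SGCB-HA, NNN codon sublibraries A-F) delivered by lentivirus at low MOI into ADG-HEK293 cells stably expressing SGCA, SGCD and SGCG. YFP-positive cells were stained for surface HA on unpermeabilized cells and FACS-sorted into bins. The functional score is log10(frequency in high bin 4 / frequency in low bin 1), normalised per chunk so that synonymous variants have mean 0 and SD 0.5. Scores are the median over codons and over duplicate biological replicates; scores below -0.5 are called non-functional. Scale: negative means deleterious.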

Variant	SGCB cell-surface expression functional score (log10)
MAAAAAAAAEQQSSNGPVKKSMREKAVERRSVNKEHNSNFKAGYIPIDEDRLHKTGLRGRKGNLAICVIILLFILAVINLIITLVIWAVDRIGPNGCDSMEFHESGLLRFKQVSDMGVIHPLYKSTVGGRRNENLVITGNNQPIVFQQGTTKLSVENNKTSITSDIGMQFFDPRTQNILFSTDYETHEFHLPSGVKSLNVQKASTERITSNATSDLNIKVDGRAIVRGNEGVFIMGKTIEFHMGGNMELKAENSIILNGSVMVSTTRLPSSSSGDQLGSGDWVRYKLCMCADGTLFKVQVTSQNMGCQISDNPCGNTH [I90D]	-0.63
MAAAAAAAAEQQSSNGPVKKSMREKAVERRSVNKEHNSNFKAGYIPIDEDRLHKTGLRGRKGNLAICVIILLFILAVINLIITLVIWAVMRIGPNGCDSMEFHESGLLRFKQVSDMGVIHPLYKSTVGGRRNENLVITGNNQPIVFQQGTTKLSVENNKTSITSDIGMQFFDPRTQNILFSTDYETHEFHLPSGVKSLNVQKASTERITSNATSDLNIKVDGRAIVRGNEGVFIMGKTIEFHMGGNMELKAENSIILNGSVMVSTTRLPSSSSGDQLGSGDWVRYKLCMCADGTLFKVQVTSQNMGCQISDNPCGNTH [I90M]	-0.16
MAAAAAAAAEQQSSNGPVKKSMREKAVERRSVNKEHNSNFKAGYIPIDEDRLHKTGLRGRKGNLAICVIILLFILAVINLIITLVIWAVPRIGPNGCDSMEFHESGLLRFKQVSDMGVIHPLYKSTVGGRRNENLVITGNNQPIVFQQGTTKLSVENNKTSITSDIGMQFFDPRTQNILFSTDYETHEFHLPSGVKSLNVQKASTERITSNATSDLNIKVDGRAIVRGNEGVFIMGKTIEFHMGGNMELKAENSIILNGSVMVSTTRLPSSSSGDQLGSGDWVRYKLCMCADGTLFKVQVTSQNMGCQISDNPCGNTH [I90P]	-1.1
MAAAAAAAAEQQSSNGPVKKSMREKAVERRSVNKEHNSNFKAGYIPIDEDRLHKTGLRGRKGNLAICVIILLFILAVINLIITLVIWAVWRIGPNGCDSMEFHESGLLRFKQVSDMGVIHPLYKSTVGGRRNENLVITGNNQPIVFQQGTTKLSVENNKTSITSDIGMQFFDPRTQNILFSTDYETHEFHLPSGVKSLNVQKASTERITSNATSDLNIKVDGRAIVRGNEGVFIMGKTIEFHMGGNMELKAENSIILNGSVMVSTTRLPSSSSGDQLGSGDWVRYKLCMCADGTLFKVQVTSQNMGCQISDNPCGNTH [I90W]	-0.2
MAAAAAAAAEQQSSNGPVKKSMREKAVERRSVNKEHNSNFKAGYIPIDEDRLHKTGLRGRKGNLAICVIILLFILAVINLIITLVIWAVQRIGPNGCDSMEFHESGLLRFKQVSDMGVIHPLYKSTVGGRRNENLVITGNNQPIVFQQGTTKLSVENNKTSITSDIGMQFFDPRTQNILFSTDYETHEFHLPSGVKSLNVQKASTERITSNATSDLNIKVDGRAIVRGNEGVFIMGKTIEFHMGGNMELKAENSIILNGSVMVSTTRLPSSSSGDQLGSGDWVRYKLCMCADGTLFKVQVTSQNMGCQISDNPCGNTH [I90Q]	-0.71
MAAAAAAAAEQQSSNGPVKKSMREKAVERRSVNKEHNSNFKAGYIPIDEDRLHKTGLRGRKGNLAICVIILLFILAVINLIITLVIWAVCRIGPNGCDSMEFHESGLLRFKQVSDMGVIHPLYKSTVGGRRNENLVITGNNQPIVFQQGTTKLSVENNKTSITSDIGMQFFDPRTQNILFSTDYETHEFHLPSGVKSLNVQKASTERITSNATSDLNIKVDGRAIVRGNEGVFIMGKTIEFHMGGNMELKAENSIILNGSVMVSTTRLPSSSSGDQLGSGDWVRYKLCMCADGTLFKVQVTSQNMGCQISDNPCGNTH [I90C]	0.33
MAAAAAAAAEQQSSNGPVKKSMREKAVERRSVNKEHNSNFKAGYIPIDEDRLHKTGLRGRKGNLAICVIILLFILAVINLIITLVIWAVYRIGPNGCDSMEFHESGLLRFKQVSDMGVIHPLYKSTVGGRRNENLVITGNNQPIVFQQGTTKLSVENNKTSITSDIGMQFFDPRTQNILFSTDYETHEFHLPSGVKSLNVQKASTERITSNATSDLNIKVDGRAIVRGNEGVFIMGKTIEFHMGGNMELKAENSIILNGSVMVSTTRLPSSSSGDQLGSGDWVRYKLCMCADGTLFKVQVTSQNMGCQISDNPCGNTH [I90Y]	-1.02
MAAAAAAAAEQQSSNGPVKKSMREKAVERRSVNKEHNSNFKAGYIPIDEDRLHKTGLRGRKGNLAICVIILLFILAVINLIITLVIWAVGRIGPNGCDSMEFHESGLLRFKQVSDMGVIHPLYKSTVGGRRNENLVITGNNQPIVFQQGTTKLSVENNKTSITSDIGMQFFDPRTQNILFSTDYETHEFHLPSGVKSLNVQKASTERITSNATSDLNIKVDGRAIVRGNEGVFIMGKTIEFHMGGNMELKAENSIILNGSVMVSTTRLPSSSSGDQLGSGDWVRYKLCMCADGTLFKVQVTSQNMGCQISDNPCGNTH [I90G]	-0.76
MAAAAAAAAEQQSSNGPVKKSMREKAVERRSVNKEHNSNFKAGYIPIDEDRLHKTGLRGRKGNLAICVIILLFILAVINLIITLVIWAVERIGPNGCDSMEFHESGLLRFKQVSDMGVIHPLYKSTVGGRRNENLVITGNNQPIVFQQGTTKLSVENNKTSITSDIGMQFFDPRTQNILFSTDYETHEFHLPSGVKSLNVQKASTERITSNATSDLNIKVDGRAIVRGNEGVFIMGKTIEFHMGGNMELKAENSIILNGSVMVSTTRLPSSSSGDQLGSGDWVRYKLCMCADGTLFKVQVTSQNMGCQISDNPCGNTH [I90E]	-1.22
MAAAAAAAAEQQSSNGPVKKSMREKAVERRSVNKEHNSNFKAGYIPIDEDRLHKTGLRGRKGNLAICVIILLFILAVINLIITLVIWAVRRIGPNGCDSMEFHESGLLRFKQVSDMGVIHPLYKSTVGGRRNENLVITGNNQPIVFQQGTTKLSVENNKTSITSDIGMQFFDPRTQNILFSTDYETHEFHLPSGVKSLNVQKASTERITSNATSDLNIKVDGRAIVRGNEGVFIMGKTIEFHMGGNMELKAENSIILNGSVMVSTTRLPSSSSGDQLGSGDWVRYKLCMCADGTLFKVQVTSQNMGCQISDNPCGNTH [I90R]	-0.63
MAAAAAAAAEQQSSNGPVKKSMREKAVERRSVNKEHNSNFKAGYIPIDEDRLHKTGLRGRKGNLAICVIILLFILAVINLIITLVIWAVKRIGPNGCDSMEFHESGLLRFKQVSDMGVIHPLYKSTVGGRRNENLVITGNNQPIVFQQGTTKLSVENNKTSITSDIGMQFFDPRTQNILFSTDYETHEFHLPSGVKSLNVQKASTERITSNATSDLNIKVDGRAIVRGNEGVFIMGKTIEFHMGGNMELKAENSIILNGSVMVSTTRLPSSSSGDQLGSGDWVRYKLCMCADGTLFKVQVTSQNMGCQISDNPCGNTH [I90K]	0.13
MAAAAAAAAEQQSSNGPVKKSMREKAVERRSVNKEHNSNFKAGYIPIDEDRLHKTGLRGRKGNLAICVIILLFILAVINLIITLVIWAVTRIGPNGCDSMEFHESGLLRFKQVSDMGVIHPLYKSTVGGRRNENLVITGNNQPIVFQQGTTKLSVENNKTSITSDIGMQFFDPRTQNILFSTDYETHEFHLPSGVKSLNVQKASTERITSNATSDLNIKVDGRAIVRGNEGVFIMGKTIEFHMGGNMELKAENSIILNGSVMVSTTRLPSSSSGDQLGSGDWVRYKLCMCADGTLFKVQVTSQNMGCQISDNPCGNTH [I90T]	0.06
MAAAAAAAAEQQSSNGPVKKSMREKAVERRSVNKEHNSNFKAGYIPIDEDRLHKTGLRGRKGNLAICVIILLFILAVINLIITLVIWAVHRIGPNGCDSMEFHESGLLRFKQVSDMGVIHPLYKSTVGGRRNENLVITGNNQPIVFQQGTTKLSVENNKTSITSDIGMQFFDPRTQNILFSTDYETHEFHLPSGVKSLNVQKASTERITSNATSDLNIKVDGRAIVRGNEGVFIMGKTIEFHMGGNMELKAENSIILNGSVMVSTTRLPSSSSGDQLGSGDWVRYKLCMCADGTLFKVQVTSQNMGCQISDNPCGNTH [I90H]	-1.82
MAAAAAAAAEQQSSNGPVKKSMREKAVERRSVNKEHNSNFKAGYIPIDEDRLHKTGLRGRKGNLAICVIILLFILAVINLIITLVIWAVVRIGPNGCDSMEFHESGLLRFKQVSDMGVIHPLYKSTVGGRRNENLVITGNNQPIVFQQGTTKLSVENNKTSITSDIGMQFFDPRTQNILFSTDYETHEFHLPSGVKSLNVQKASTERITSNATSDLNIKVDGRAIVRGNEGVFIMGKTIEFHMGGNMELKAENSIILNGSVMVSTTRLPSSSSGDQLGSGDWVRYKLCMCADGTLFKVQVTSQNMGCQISDNPCGNTH [I90V]	0.01
MAAAAAAAAEQQSSNGPVKKSMREKAVERRSVNKEHNSNFKAGYIPIDEDRLHKTGLRGRKGNLAICVIILLFILAVINLIITLVIWAVNRIGPNGCDSMEFHESGLLRFKQVSDMGVIHPLYKSTVGGRRNENLVITGNNQPIVFQQGTTKLSVENNKTSITSDIGMQFFDPRTQNILFSTDYETHEFHLPSGVKSLNVQKASTERITSNATSDLNIKVDGRAIVRGNEGVFIMGKTIEFHMGGNMELKAENSIILNGSVMVSTTRLPSSSSGDQLGSGDWVRYKLCMCADGTLFKVQVTSQNMGCQISDNPCGNTH [I90N]	0.07
MAAAAAAAAEQQSSNGPVKKSMREKAVERRSVNKEHNSNFKAGYIPIDEDRLHKTGLRGRKGNLAICVIILLFILAVINLIITLVIWAVLRIGPNGCDSMEFHESGLLRFKQVSDMGVIHPLYKSTVGGRRNENLVITGNNQPIVFQQGTTKLSVENNKTSITSDIGMQFFDPRTQNILFSTDYETHEFHLPSGVKSLNVQKASTERITSNATSDLNIKVDGRAIVRGNEGVFIMGKTIEFHMGGNMELKAENSIILNGSVMVSTTRLPSSSSGDQLGSGDWVRYKLCMCADGTLFKVQVTSQNMGCQISDNPCGNTH [I90L]	0.26
MAAAAAAAAEQQSSNGPVKKSMREKAVERRSVNKEHNSNFKAGYIPIDEDRLHKTGLRGRKGNLAICVIILLFILAVINLIITLVIWAVFRIGPNGCDSMEFHESGLLRFKQVSDMGVIHPLYKSTVGGRRNENLVITGNNQPIVFQQGTTKLSVENNKTSITSDIGMQFFDPRTQNILFSTDYETHEFHLPSGVKSLNVQKASTERITSNATSDLNIKVDGRAIVRGNEGVFIMGKTIEFHMGGNMELKAENSIILNGSVMVSTTRLPSSSSGDQLGSGDWVRYKLCMCADGTLFKVQVTSQNMGCQISDNPCGNTH [I90F]	-1.5
MAAAAAAAAEQQSSNGPVKKSMREKAVERRSVNKEHNSNFKAGYIPIDEDRLHKTGLRGRKGNLAICVIILLFILAVINLIITLVIWAVSRIGPNGCDSMEFHESGLLRFKQVSDMGVIHPLYKSTVGGRRNENLVITGNNQPIVFQQGTTKLSVENNKTSITSDIGMQFFDPRTQNILFSTDYETHEFHLPSGVKSLNVQKASTERITSNATSDLNIKVDGRAIVRGNEGVFIMGKTIEFHMGGNMELKAENSIILNGSVMVSTTRLPSSSSGDQLGSGDWVRYKLCMCADGTLFKVQVTSQNMGCQISDNPCGNTH [I90S]	-0.35
MAAAAAAAAEQQSSNGPVKKSMREKAVERRSVNKEHNSNFKAGYIPIDEDRLHKTGLRGRKGNLAICVIILLFILAVINLIITLVIWAVIAIGPNGCDSMEFHESGLLRFKQVSDMGVIHPLYKSTVGGRRNENLVITGNNQPIVFQQGTTKLSVENNKTSITSDIGMQFFDPRTQNILFSTDYETHEFHLPSGVKSLNVQKASTERITSNATSDLNIKVDGRAIVRGNEGVFIMGKTIEFHMGGNMELKAENSIILNGSVMVSTTRLPSSSSGDQLGSGDWVRYKLCMCADGTLFKVQVTSQNMGCQISDNPCGNTH [R91A]	-0.38

Reference: the supplement of paper PMC10266784
